Measured values reported in the DeepSol protein solubility set.

Assay: soluble on expression in E. coli; label from the status in PepcDB or PDB records

Sequence	soluble on expression in E. coli
MGSDKIHHHHHHMSEKQTTILIINMASDFGGGEIQTEELMLNLTNYNICFFGKSSGKFIPRLKEKAPHIKIVNLWEMLKLVFCCSSLIIHAQDGRGAHIAGFLKKISGRPVVITRHVSFPFKRKFSLSSYKNADMLVGVSQQVTENLKLLNSNCRTIYGCIKPLLENAEFEQRYFVKKHILAIAHIGNLQAVKNFQLTLSLAKNFSQIQFFIVGSGELEQELKQQAINLPNITFIPFTPYIGSVFKKVDLQIVPSHSEGLGAVILEGYQYRVSVIAHQTGGISEIVQNEKTGFLVENNDPMIYHKILTTLLDNPQKLCELKQNVERYIFEHDFSARRMALEYEQVYSAILANRTQK	not soluble
MSLKSYGAVKRISGKNRYVLSENIAKQMGSYDKAIVVTGRVFQDALAIAPYAAAHGYPILLTEKDKLPDYDLPKQVIIIGSSFSVSDSVENQIKKTSEGHHHHHH	soluble
TALSVLDLVMIGEGKTFADAIEESRQLARHVEQQHYSRYWIAEHHDMPGIGSAATSLVINEIANATRHIRVGAGGIMLPNHAPLVVAEQFGTLNTLHPGRIDLGLGRAPGTSGPTVRALRGAAPERDFGQDIAELRDYLADNGKRRVRGVPGAHDVPVWILGSSLFGADLAAKLGLPYAFASHFAPRYLLQAIAHYRANFQPSAQLAKPYVMVGMNLFAAASDAEADYLASSHRKWMLDLHVGRFGLLPKPQEGYLERLPDHERAVLDQVMACSVAGGPERVREGLRSLIEQTGADELMIDCRIHDPLARQRSHAYAAQ	not soluble
MSLRIAIIITQKTNDLHATVPCFLWRKARYAVDLISAEAKASIMLEMGIHVRCDNTLSKTNFNQYTAAFIPHGNTTRLVEIDKLRKDLEKFVYKPKGPMRWLFSSGNGACVLKEFDLIAPDQLVTVQNEKEMVKLLGKNFIKQPVHVDKNIISCANSCGLTKFSFKVIEELSGIELARKTANLVDHIYKGEGHHHHHH	soluble
KLKPYNSEKILKYAEEVKSLYEKQSEENQEAYLQSIAKLGYEIYIVDDQKNGKRIGNAFRKTSISDDTVHKVLQGETFNGVSTYPTRLFITGFFDNELINSVGVPVKHGDKQYALFIRPDIQNQFGEMR	not soluble
MSMIYKNIVCPVCGAACDDIQVEFGDGKIEARNACKMGNAKFQEVVSSHRLRQPLIKVNGRLTAAAWDEALERAADILVSAKRPLLFMGSETSCEAHEVGLKIGEYLGALVDSNATICHGPTAMGIQESGKVGATEGQKKNRGDLIVYWGTNPLESMPRQMSRYGVFPRGYWTKRGRFDRTVITVDPRKTPTTEASDLHVQLKPGSDYELISALLTLLHGKTPHPSVEEITGVPIPVMEEMLDMMKNCNFGAISVGLGLSSSIGKHRNAEIAMNLVKELNNYAKFTLGALRGHCNVAGFNQVASYMYGYPFGLDFMRGHPRYNPGEYTTVDVLREKDVDAAFVMCADLVCHIPADCASYLAEIPMVCLDIAPCPSTAASDVVLPGVIDAMECDGTFYRLDDVAVHFEPFTSSPFEFTKSNEDTLKQLFEKIKARK	not soluble
MIYSMTAYARKEVKGNWGSAVWEIRSVNQRYLETYFRMPEQFRALEPVLRERFRKRLARGKVECSLRFEANPAAKAELSINEALATQVIKAAEQVMHMTGELSRINPFQVMQWPGVMETPEQNMDEVNKELLAAFDEAISEFIEARGREGDNMKALIEQRLDAITAEVVKVRARMPEILEWQRERLFSKFEDAKIELDASRVEQELILLAQKSDVAEELDRLDSHVKETTNILKKGGAVGRRLDFMMQEFNRESNTLASKSISTDITASGVELKVLIEQMREQIQNIE	not soluble
SPVYGVKAVPVERIRANSYNPNVTAPPEMRLLELSIWEDGYTMPCVCYYIEKEDVYELVDGYHRYKVMMTSPRIYKRENGLLPVTVIRKDLAERMASTIRHNRARGMHK	soluble
QGHMRVEVFPVEGLPLIKEGDDLAELISSRVRFEDGDVLVVCSTVISKAEGRIRRLEEFNPSERAKEIAARIGKPAEFVQAVLEESEEVLLDFPFLLVKAKFGNVCVNAGIDASNVEEGSLLLPPLDPDGSAEKLRRRILELTGKRVGVIITDTNGRCFRRGVVGFAIGISGVKAMKDWIGRKDLYGRELEVTVECVADEIAAFANLLMGEGGDGIPAVVVRGLNVAGEGSMEEIYRSEEEDVIRRCLKRCLGS	soluble
MGSDKIHHHHHHMLLTTRPPSPDSIPCCAGCSMARVCLAGNCDSDGEGPADGLAQRVIRLRKGEPLYLLGDPLAALFAVRVGTVKTHVATEDGRTQVVGFHFPGEVVGLDSIGRRQYASYATALEDTKVCMIPMDVLRPLAACTPALASRVFRALDGYAQRTRALQTLLALMTAEERLVTFLLWISEGLAARGFSSSEFILRMSREEIGSYIGLTLETVSRQFSRLAECGLIRVKHRSVALVDKAGLRAIADRSAISPIPPGTNRRRGGEQRVPAQALRTSAPAWATRTQPATAAMQADNPKINPFAWEAGNGQQ	not soluble
MIVALGADLVEIARVERLLSRHGERALRRLFHEEEVAYALARQNPFPSLAARLAAKEAFQKCWPESLSWKEVWVGMEGKRPALRFAPRIEARMAEEGLFAHLSLSHERSHALAVVVLEARARGGG	soluble
MGSDKIHHHHHHAKTTTQHGNALAAYNVKRYKTVKNRNLFVKRYAFQQSYTNIFQTSPTQISSTKGKAVTFKSNVFLPVTYQRSADWGNPQSEVLTPNGNTLYELITTSSQSTTGRIVRYNLGALRHFGITSTHMDALRRATYDHSVGKLTATDKAILKNVTVGPLFNTGHGQSLARNPKNGQLWFIGKPGAVKSNVQQVSTKTLKPSTKVNFTLKNTVPMGSNLTFDKHGKAYFFTYSNGGWAPKGAVKIYQGTISTKSVHFHLVMQGLRYAPGTKPQSMAYNAKRNRLYFVSDSSLASIPVSKLGKLKASQVEGTNLNGHREFEGLQFTSNGSGYLLVNKGAELMQTTHATF	not soluble
MGSDKIHHHHHHMRGYFRADWTERVELSEHDIGELRFSLKNRLGEALLLTSQEDMLRYCRDWHGDVTSSAVAVIRPRSTKEVSDTVIACAELGLAIIPQGGNTGLVLGGIPDAPKHQVVLSLERMNAIRTIDSDDFSAVVEAGCILSEFKDAVQDKGMFFPLSLGAQGSCRIGGNVSTNAGGINVLRYGMTRELVLGLEVVLPDGTIWNGLSTLRKDNRGIDLKQLFIGAEGTLGIITAVAVKLYPNPEHVETALLGLNSLDDAIKLYRRARRECCDLMSAFEFMPPVAFTLAIEAIPDLKMPIAGDYPAYVLMEISGSGLVDTADLMGRFLEGVMEDGLVLDGVIASSRAQAQSLWLFREGMNEGQALRGSHMRTDISVPLSKLAAFVAEAEAELAEKLPECLAVSYGHVGDGNVHLNVLPPNGATLEEREAFIYKSKTLVNEVLDRYVGSISAEHGIGRLKRSDFESRLSDVQRRMITGLKNAFDPDLRMNPGCQITLQPDS	not soluble
MGSDKIHHHHHHKEKSTVAVLPFTVHSADNIDYVKQGISDMLTSRIAVEGKISVASKDLVQEAIKGRTTRDLTPEEMNALGKKLNVDYIVSGSITKIGNSLSIDGKLMDLAAARSTVGIFAQTQGLDEVIPKINDFSQRIVQHITGSTPSDFSSPAMELPAPSSAAAVADKPPQRSRESEIISGMRTSRKGTFTSIINPDFIDAARPLDRKGFWMSQKFPTEFRGMAIGDVNGDKLQEVVVIDRSNLYVYQRKGDDFKLLQKIPGKTHDNYLAVDVADINQNGIMEIFVTNMNRNTLASFVTEWQDGKYIQTAKDLRLFLRVIEPSIAAPQLLGQGFGLDNPFNTPIHEVIWDGKHYRAATRMKIPEGLSVYGLTLDDLGMGGSEKVISLDDYDYIRIYQQTEKPLSRLNVFGGSDELIWKSDEVFGGSNTYVEHAGSTVPGDEVRRTYINLRILTYDINKDGKKELILVKNLSAVGRVLKNVKLFTSSEVYNLEWDGLGLLENWKTRKINGYVADYQFKDIDNDGQNEIVLALVLSTGATLQNRSAFVAYKLSPQQ	not soluble
MVKLAEFSRTATFAWSHDKIPLLVSGTVSGTVDANFSTDSSLELWSLLAADSEKPIASLQVDSKFNDLDWSHNNKIIAGALDNGSLELYSTNEANNAINSMARFSNHSSSVKTVKFNAKQDNVLASGGNNGEIFIWDMNKCTESPSNYTPLTPGQSMSSVDEVISLAWNQSLAHVFASAGSSNFASIWDLKAKKEVIHLSYTSPNSGIKQQLSVVEWHPKNSTRVATATGSDNDPSILIWDLRNANTPLQTLNQGHQKGILSLDWCHQDEHLLLSSGRDNTVLLWNPESAEQLSQFPARGNWCFKTKFAPEAPDLFACASFDNKIEVQTLQNLTNTLDEQETETKQQESETDFWNNVSREESKEKPSVFHLQAPTWYGEPSPAAHWAFGGKLVQITPDGKGVSITNPKISG	soluble
MSLIPLRQNIASMKGYIPGYQPPDIASWIKLNTNENPYPPSPEVVKAILEELGPDGAALRIYPSASSQKLREVAGELYGFDPSWIIMANGSDEVLNNLIRAFAAEGEEIGYVHPSYSYYGTLAEVQGARVRTFGLTGDFRIAGFPERYEGKVFFLTTPNAPLGPSFPLEYIDELARRCAGMLVLDETYAEFAESNALELVRRHENVVVTRTLSKSYSLAGMRIGLAIARPEVIAALDKIRDHYNLDRLAQAACVAALRDQAYLSECCRRIRETREWFTTELRSIGYDVIPSQGNYLFATPPDRDGKRVYDGLYARKVLVRHFSDPLLAHGMRISIGTREEMEQTLAALKEIGEGHHHHHH	soluble
MGSDKIHHHHHHVSKLSKTRIILACLLNDSVMTTTTAALTPNPIPDLGTDLTTEPCPLTAAQLDVLNRQIKLWGKELGFAHIGVADVDLSQHEAALQDWLDKGYHGEMGYMANHGMMRARPAELHPGAIRVICARMDYLPPDAGFASNLTDPNLGYISRYAGGRDYHKLIRQRLKKLGDKINQYCQQLDFDATDFRPFVDSAPILERPLADKAGLGWTGKHSLILHPDAGSWFFLGELLINLPLPLDIPIEEGCNTCVACIKSCPTDAIVEPYVVDARRCISYLTIELQGAIPEEFRPLIENRIYGCDDCQLVCPVNAKAPLTKETDFHTRTTLIQPDLLTLFAWSETYFLNQTEGSAIRRIGHKRWLRNIAIALGNAPANPAIIEALEQRKHSEEVDDMVLEHIEWALVQQIQKAPQSALSRKTQRVIRSIQKGLPRDA	not soluble
MKTCFLSIWRVVDPIYFFFSRLSLIDNDQKSVFRVRLTKYKGHHVVLSDGTHIRKNDVLVKIHLHNIKLIRELQSIESAVRKGIIIYQKVYPSMPLLLDYINNHKKSEKIKGNHWITMLDKGVERLGFDVITPVNPFYRCFKKVSHVPILYLTSKPVSLRHLPNSSYLFISKEKLQKTYQKKDMAGDPLEHHHHHH	not soluble
MGSSHHHHHHSSGLVPRGSHMIMLRIPTRSYCSPSKLIKGVGLSPLKKSLLSKKIKEDIHPSLPVRTRFAPSPTGFLHLGSLRTALYNYLLARNTNGQFLLRLEDTDQKRLIEGAEENIYEILKWCNINYDETPIKQSERKLIYDKYVKILLSSGKAYRCFCSKERLNDLRHSAMELKPPSMASYDRCCAHLGEEEIKSKLAQGIPFTVRFKSPERYPTFTDLLHGQINLQPQVNFNDKRYDDLILVKSDKLPTYHLANVVDDHLMGITHVIRGEEWLPSTPKHIALYNAFGWACPKFIHIPLLTTVGDKKLSKRKGDMSISDLKRQGVLPEALINFCALFGWSPPRDLASKKHECFSMEELETIFNLNGLTKGNAKVDDKKLWFFNKHFLQKRILNPSTLRELVDDIMPSLESIYNTSTISREKVAKILLNCGGSLSRINDFHDEFYYFFEKPKYNDNDAVTKFLSKNESRHIAHLLKKLGQFQEGTDAQEVESMVETMYYENGFSRKVTYQAMRFALAGCHPGAKIAAMIDILGIKESNKRLSEGLQFLQREKK	soluble
